The target of data set [1] is T1, GST-RIZ332 (GST fusion of human RIZ1 residues 1-332).
T1 chain: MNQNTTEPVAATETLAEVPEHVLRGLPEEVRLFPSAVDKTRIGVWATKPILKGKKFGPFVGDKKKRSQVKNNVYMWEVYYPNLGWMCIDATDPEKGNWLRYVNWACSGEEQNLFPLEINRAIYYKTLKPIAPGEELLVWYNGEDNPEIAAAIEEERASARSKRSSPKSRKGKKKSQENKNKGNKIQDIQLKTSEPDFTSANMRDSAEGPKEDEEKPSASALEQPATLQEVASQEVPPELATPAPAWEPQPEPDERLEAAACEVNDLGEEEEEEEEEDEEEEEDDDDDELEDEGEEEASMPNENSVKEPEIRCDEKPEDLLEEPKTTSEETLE

Data set [2] has as its target histone H4 (free histones acid-extracted from human cancer cells A549 or U2OS), P62805.
Data set [3] has as its target histone H3 (free histones acid-extracted from human cancer cells A549 or U2OS), P68431.
Data set [4] has as its target histone H1 (free histones acid-extracted from human cancer cells A549 or U2OS), P07305.
Data set [5] concerns the target H1 peptide (aa 15-37).
Data set [6] concerns the target H3 N terminus 1-20 residue peptide (non-acetylated), P68431.
For data set [7], the target named is H3 N terminus 1-20 residue peptide acetylated on K9 and K14, P68431.

Numbering of substitutions follows the chain as printed. Numbers in names are those of the source.

Sequence of histone H1 (free histones acid-extracted from human cancer cells A549 or U2OS), P07305 (P07305 whole entry, looked up, the tested form may be a part): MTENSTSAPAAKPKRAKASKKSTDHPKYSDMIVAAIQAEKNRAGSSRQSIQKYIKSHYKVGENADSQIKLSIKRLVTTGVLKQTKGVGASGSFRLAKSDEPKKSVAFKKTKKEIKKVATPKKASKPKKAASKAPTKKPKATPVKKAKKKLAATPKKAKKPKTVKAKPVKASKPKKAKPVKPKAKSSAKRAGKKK

B1: GSTRIZPBD, GST-hRIZ1(1514-1680) (GST fusion of the PR-binding domain of human RIZ1) (protein)
chain: HRRRTADAEIKMQSMQTPLGKTRARSSGPTQVPLPSSSFRSKQNVKFAASVKSKKPSSSSLRNSSPIRMAKITHVEGKKPKAVAKNHSAQLSSKTSRSLHVRVQKSKAVLQSKSTLASKKRTDRFNIKSRERSGGPVTRSLQLAAAADLSENKREDGSAKQELKDFS
Turning to B1, in data set [1], the “histone methyltransferase activity in vitro with both proteins present” value was “A synergistic enhancement (more than additive effects) of HMT activity was observed when GSTRIZ322 and GSTRIZPBD were both present in HMT reactions”. In addition, the “histone methyltransferase activity in vitro (3H-SAM, SDS-PAGE, fluorography)” value in data set [2] is “GSTRIZPBD protein alone showed HMT activity, specifically on H4”.

B2: GST-RIZ161 (GST fusion of human RIZ1 residues 1-161) (protein)
chain: MNQNTTEPVAATETLAEVPEHVLRGLPEEVRLFPSAVDKTRIGVWATKPILKGKKFGPFVGDKKKRSQVKNNVYMWEVYYPNLGWMCIDATDPEKGNWLRYVNWACSGEEQNLFPLEINRAIYYKTLKPIAPGEELLVWYNGEDNPEIAAAIEEERASARS
In the case of B2, the “histone methyltransferase activity in vitro (3H-SAM, SDS-PAGE, fluorography)” value in data set [2] is on record as “GST alone or a protein consisting of residues 1-161 lacked HMT activity”.

B3: full length RIZ1 protein expressed in mammalian cells from adenovirus AdRIZ1 (protein)
chain: MNQNTTEPVAATETLAEVPEHVLRGLPEEVRLFPSAVDKTRIGVWATKPILKGKKFGPFVGDKKKRSQVKNNVYMWEVYYPNLGWMCIDATDPEKGNWLRYVNWACSGEEQNLFPLEINRAIYYKTLKPIAPGEELLVWYNGEDNPEIAAAIEEERASARSKRSSPKSRKGKKKSQENKNKGNKIQDIQLKTSEPDFTSANMRDSAEGPKEDEEKPSASALEQPATLQEVASQEVPPELATPAPAWEPQPEPDERLEAAACEVNDLGEEEEEEEEEDEEEEEDDDDDELEDEGEEEASMPNENSVKEPEIRCDEKPEDLLEEPKTTSEETLEDCSEVTPAMQIPRTKEEANGDVFETFMFPCQHCERKFTTKQGLERHMHIHISTVNHAFKCKYCGKAFGTQINRRRHERRHEAGLKRKPSQTLQPSEDLADGKASGENVASKDDSSPPSLGPDCLIMNSEKASQDTINSSVVEENGEVKELHPCKYCKKVFGTHTNMRRHQRRVHERHLIPKGVRRKGGLEEPQPPAEQAQATQNVYVPSTEPEEEGEADDVYIMDISSNISENLNYYIDGKIQTNNNTSNCDVIEMESASADLYGINCLLTPVTVEITQNIKTTQVPVTEDLPKEPLGSTNSEAKKRRTASPPALPKIKAETDSDPMVPSCSLSLPLSISTTEAVSFHKEKSVYLSSKLKQLLQTQDKLTPAGISATEIAKLGPVCVSAPASMLPVTSSRFKRRTSSPPSSPQHSPALRDFGKPSDGKAAWTDAGLTSKKSKLESHSDSPAWSLSGRDERETVSPPCFDEYKMSKEWTASSAFSSVCNQQPLDLSSGVKQKAEGTGKTPVQWESVLDLSVHKKHCSDSEGKEFKESHSVQPTCSAVKKRKPTTCMLQKVLLNEYNGIDLPVENPADGTRSPSPCKSLEAQPDPDLGPGSGFPAPTVESTPDVCPSSPALQTPSLSSGQLPPLLIPTDPSSPPPCPPVLTVATPPPPLLPTVPLPAPSSSASPHPCPSPLSNATAQSPLPILSPTVSPSPSPIPPVEPLMSAASPGPPTLSSSSSSSSSSSSFSSSSSSSSPSPPPLSAISSVVSSGDNLEASLPMISFKQEELENEGLKPREEPQSAAEQDVVVQETFNKNFVCNVCESPFLSIKDLTKHLSIHAEEWPFKCEFCVQLFKDKTDLSEHRFLLHGVGNIFVCSVCKKEFAFLCNLQQHQRDLHPDKVCTHHEFESGTLRPQNFTDPSKAHVEHMQSLPEDPLETSKEEEELNDSSEELYTTIKIMASGIKTKDPDVRLGLNQHYPSFKPPPFQYHHRNPMGIGVTATNFTTHNIPQTFTTAIRCTKCGKGVDNMPELHKHILACASASDKKRYTPKKNPVPLKQTVQPKNGVVVLDNSGKNAFRRMGQPKRLNFSVELSKMSSNKLKLNALKKKNQLVQKAILQKNKSAKQKADLKNACESSSHICPYCNREFTYIGSLNKHAAFSCPKKPLSPPKKKVSHSSKKGGHSSPASSDKNSNSNHRRRTADAEIKMQSMQTPLGKTRARSSGPTQVPLPSSSFRSKQNVKFAASVKSKKPSSSSLRNSSPIRMAKITHVEGKKPKAVAKNHSAQLSSKTSRSLHVRVQKSKAVLQSKSTLASKKRTDRFNIKSRERSGGPVTRSLQLAAAADLSENKREDGSAKQELKDFSYSLRLASRCSPPAAPYITRQYRKVKAPAAAQFQGPFFKE
With B3, the “histone methyltransferase activity of RIZ1 immunoprecipitates on free histones” value in data set [3] is “Immunoprecipitated products by RIZ1 serum from RIZ1-expressing extracts caused methylation of H1, H3, and H4”; in data set [4], “Immunoprecipitated products by RIZ1 serum from RIZ1-expressing extracts caused methylation of H1, H3, and H4”; in data set [2] it was “Immunoprecipitated products by RIZ1 serum from RIZ1-expressing extracts caused methylation of H1, H3, and H4”. Besides, the “in vitro peptide methylation by RIZ1, then HPLC purification and sequencing” value in data set [5] was “A H1 peptide (aa 15-37) was methylated by RIZ1 in vitro ... lysine 25 was methylated by RIZ1”. For the same protein, the “in vitro peptide methylation by immunoprecipitated RIZ1, then peptide sequencing” value in data set [6] is reported as “A peptide consisting the N-terminal 1-20 residues of H3 was indeed methylated in vitro by immunoprecipitated RIZ1 protein ... A single radioactive peak at lysine 9 was observed”. Besides, the “in vitro peptide methylation by immunoprecipitated RIZ1” value in data set [7] was “a peptide containing acetylated K9 and K14 was not methylated”.

B4: GST-RIZ200 (GST fusion of human RIZ1 residues 1-200) (protein)
chain: MNQNTTEPVAATETLAEVPEHVLRGLPEEVRLFPSAVDKTRIGVWATKPILKGKKFGPFVGDKKKRSQVKNNVYMWEVYYPNLGWMCIDATDPEKGNWLRYVNWACSGEEQNLFPLEINRAIYYKTLKPIAPGEELLVWYNGEDNPEIAAAIEEERASARSKRSSPKSRKGKKKSQENKNKGNKIQDIQLKTSEPDFTSA
Take B4: the “histone methyltransferase activity in vitro (3H-SAM, SDS-PAGE, fluorography)” value in data set [2] is “Specific labeling of histone H4 was observed in the presence of purified GST product consisting of residues 1-200 of RIZ1”.

B5: GST-RIZ200 point mutant C106Y (protein)
chain: B4 chain with C106Y
With B5, the “histone methyltransferase activity in vitro (3H-SAM, SDS-PAGE, fluorography)” value in data set [2] is “missense mutations found in tumors, C106Y, I188V, and A159V, abolished HMT activity”.

B6: GST-RIZ200 point mutant I188V (protein)
chain: B4 chain with I188V
Regarding B6, the “histone methyltransferase activity in vitro (3H-SAM, SDS-PAGE, fluorography)” value in data set [2] was “missense mutations found in tumors, C106Y, I188V, and A159V, abolished HMT activity”.

B7: GST-RIZ200 point mutant A159V (protein)
chain: B4 chain with A159V
On to B7, for which the “histone methyltransferase activity in vitro (3H-SAM, SDS-PAGE, fluorography)” value in data set [2] was “missense mutations found in tumors, C106Y, I188V, and A159V, abolished HMT activity”.

B8: GST-RIZ332 (GST fusion of human RIZ1 residues 1-332) (protein)
chain: T1 chain
Consider B8, for which, in data set [2], the “histone methyltransferase activity in vitro (3H-SAM, SDS-PAGE, fluorography)” value is reported as “A GST fusion protein expressing the N-terminal 332-residue peptide showed similar activities to the N-terminal 200-residue peptide in methylating H4”.

These data come from patent US20030092095.
